# Test results taken from article PMC13083842 (Communications Biology, 2026).
# Molecular target: T1, soluble IL-6 receptor (sIL-6R) (human (from the printed accession …, UniProt P08887))
# T1 construct: interleukin-6 receptor (IL-6R), soluble variant, residues 20-355, UniProt P08887; Two versions were made: 1; C-terminal His9-Tag; 2; C-terminal Twin-Strep-Tag, 3xGS-Linker and TEV cleavage site; Only the ELISA on sASGPR (anti-His-HRP detection) tells that the His9 version was used; Strongly and heterogeneously glycosylated; also called wild-type sIL-6R; unmodified sIL-6R; source: Expi293F, …
# Experiment: SPR; IL-6R amine-coupled on a CM5 chip (Biacore T200); tocilizumab variants as analytes, multi-cycle kinetics, 0.39 to 100 nM; global fit, 1:1 model
# Conditions: both partners purified
row,Binder,fold weaker affinity than wildtype tocilizumab
1,"tocilizumab-TGN 1:25 (antibody, V domains shown, as the heavy chain of m6; as the light chain of m6; Heterogeneous conjugate; See m6 for the DrugBank ids; also called the 1:25 variant; source: HEK293T, transfected, purified (Protein A, SEC), then conjugated with Tris-GalNAc-PEG5-sulfo-NHS ester at 1:25) VH: QVQLQESGPGLVRPSQTLSLTCTVSGYSITSDHAWSWVRQPPGRGLEWIGYISYSGITTYNPSLKSRVTMLRDTSKNQFSLRLSSVTAADTAVYYCARSLARTTAMDYWGQGSLVTVSS VL: DIQMTQSPSSLSASVGDRVTITCRASQDISSYLNWYQQKPGKAPKLLIYYTSRLHSGVPSRFSGSGSGTDFTFTISSLQPEDIATYYCQQGNTLPYTFGQGTKVEIK",≤ 5 fold

# Molecular target: T2, interleukin-6 (IL-6) (human, UniProt P05231)
# T2 construct: interleukin-6, human; A biotinylated IL-6 was used in the cell uptake assays; for SPR and ELISA the IL-6 was amine-coupled or coated
# T2 sequence (P05231 30-212): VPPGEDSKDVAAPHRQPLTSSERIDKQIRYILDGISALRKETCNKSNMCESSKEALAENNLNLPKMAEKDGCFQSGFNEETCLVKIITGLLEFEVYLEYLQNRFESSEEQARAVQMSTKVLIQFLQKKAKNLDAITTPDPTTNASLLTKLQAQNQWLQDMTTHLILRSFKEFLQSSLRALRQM
# Experiment: SPR; IL-6 amine-coupled on a CM5 chip (Biacore T200); analytes in multi-cycle kinetics, 0.39 to 100 nM, 30 µL/min, 180 s association, 1200 s dissociation, HBS-N + 10 mM CaCl2; global fit, 1:1 model; where koff was below the detection limit KD was estimated from kon and the theoretical maximum koff
# Conditions: both partners purified
Binder,Kd,koff,kon
"siltuximab (antibody, V domains shown, heavy chain of siltuximab, chimeric (human-murine) anti-IL-6 antibody; light chain of siltuximab; Full-length IgG; also called wildtype siltuximab; unmodified siltuximab; source: HEK293T, transfected, purified from supernatant (Protein A, SEC); copies: 2 + 2) VH: EVQLVESGGKLLKPGGSLKLSCAASGFTFSSFAMSWFRQSPEKRLEWVAEISSGGSYTYYPDTVTGRFTISRDNAKNTLYLEMSSLRSEDTAMYYCARGLWGYYALDYWGQGTSVTVSS VL: QIVLIQSPAIMSASPGEKVTMTCSASSSVSYMYWYQQKPGSSPRLLIYDTSNLASGVPVRFSGSGSGTSYSLTISRMEAEDAATYYCQQWSGYPYTFGGGTKLEIK",< 45 pM,< 1e-05 s⁻¹,445000 M⁻¹ s⁻¹
"siltuximab-TGN 1:1 (antibody, V domains shown, as the heavy chain of m1; as the light chain of m1; Heterogeneous conjugate; See m1 for the DrugBank ids; also called TGN-modified siltuximab variant 1:1; source: HEK293T, transfected, purified (Protein A, SEC), then conjugated with Tris-GalNAc-PEG5-sulfo-NHS ester at 1:1; copies: 2 + 2) VH: EVQLVESGGKLLKPGGSLKLSCAASGFTFSSFAMSWFRQSPEKRLEWVAEISSGGSYTYYPDTVTGRFTISRDNAKNTLYLEMSSLRSEDTAMYYCARGLWGYYALDYWGQGTSVTVSS VL: QIVLIQSPAIMSASPGEKVTMTCSASSSVSYMYWYQQKPGSSPRLLIYDTSNLASGVPVRFSGSGSGTSYSLTISRMEAEDAATYYCQQWSGYPYTFGGGTKLEIK",< 45 pM,< 1e-05 s⁻¹,–
"siltuximab-TGN 1:25 (antibody, V domains shown, as the heavy chain of m1; as the light chain of m1; Heterogeneous conjugate; See m1 for the DrugBank ids; also called the 1:25 variant; source: HEK293T, transfected, purified (Protein A, SEC), then conjugated with Tris-GalNAc-PEG5-sulfo-NHS ester at 1:25; copies: 2 + 2) VH: EVQLVESGGKLLKPGGSLKLSCAASGFTFSSFAMSWFRQSPEKRLEWVAEISSGGSYTYYPDTVTGRFTISRDNAKNTLYLEMSSLRSEDTAMYYCARGLWGYYALDYWGQGTSVTVSS VL: QIVLIQSPAIMSASPGEKVTMTCSASSSVSYMYWYQQKPGSSPRLLIYDTSNLASGVPVRFSGSGSGTSYSLTISRMEAEDAATYYCQQWSGYPYTFGGGTKLEIK",< 45 pM,< 1e-05 s⁻¹,221000 M⁻¹ s⁻¹
"siltuximab-TGN 1:5 (antibody, V domains shown, as the heavy chain of m1; as the light chain of m1; Heterogeneous conjugate; See m1 for the DrugBank ids; also called TGN-modified siltuximab variant 1:5; source: HEK293T, transfected, purified (Protein A, SEC), then conjugated with Tris-GalNAc-PEG5-sulfo-NHS ester at 1:5; copies: 2 + 2) VH: EVQLVESGGKLLKPGGSLKLSCAASGFTFSSFAMSWFRQSPEKRLEWVAEISSGGSYTYYPDTVTGRFTISRDNAKNTLYLEMSSLRSEDTAMYYCARGLWGYYALDYWGQGTSVTVSS VL: QIVLIQSPAIMSASPGEKVTMTCSASSSVSYMYWYQQKPGSSPRLLIYDTSNLASGVPVRFSGSGSGTSYSLTISRMEAEDAATYYCQQWSGYPYTFGGGTKLEIK",< 45 pM,< 1e-05 s⁻¹,–
"siltuximab-TGN 1:10 (antibody, V domains shown, as the heavy chain of m1; as the light chain of m1; Heterogeneous conjugate; See m1 for the DrugBank ids; also called TGN-modified siltuximab variant 1:10; source: HEK293T, transfected, purified (Protein A, SEC), then conjugated with Tris-GalNAc-PEG5-sulfo-NHS ester at 1:10; copies: 2 + 2) VH: EVQLVESGGKLLKPGGSLKLSCAASGFTFSSFAMSWFRQSPEKRLEWVAEISSGGSYTYYPDTVTGRFTISRDNAKNTLYLEMSSLRSEDTAMYYCARGLWGYYALDYWGQGTSVTVSS VL: QIVLIQSPAIMSASPGEKVTMTCSASSSVSYMYWYQQKPGSSPRLLIYDTSNLASGVPVRFSGSGSGTSYSLTISRMEAEDAATYYCQQWSGYPYTFGGGTKLEIK",< 45 pM,< 1e-05 s⁻¹,–
